The values that follow come from article PMC4105619, “Identification and Characterisation of Aedes aegypti Aldehyde Dehydrogenases Involved in Pyrethroid Metabolism” (PLoS ONE, 2014).

Substrate in series [1]: O=Cc1cccc(Oc2ccccc2)c1
Kind of series: purified protein. To be noted: saturating NAD+, 33 mM phosphate pH 8.2, 1 mM EDTA, 0.1 mM pyrazole, 37°C. Type of series: biochemical, Aedes aegypti.

Substrate in series [2]: NC(=O)c1ccc[n+]([C@@H]2O[C@H](COP(=O)(O)OP(=O)(O)OC[C@H]3O[C@@H](n4cnc5c(N)ncnc54)[C@H](O)[C@@H]3O)[C@@H](O)[C@H]2O)c1
Kind of series: purified protein. Type of series: biochemical, Aedes aegypti. Particulars: saturating PBald, 33 mM phosphate pH 8.2, 1 mM EDTA, 0.1 mM pyrazole, 37°C, varied: cofactor.

B1: ALDH9948 (Aedes aegypti) (protein)
chain: MANANPEIKYTQLFINNEFVDAVSGKVFPTVNPSTGKKIVDIAEGDKADVDLAVQAAKAAFQRSSKWRQMDASARGKLIYKLADLMERDMHQIASLESLDNGKPYMSAVYDVYGSMNCLRYYAGWTDKVCGETVPSDGPHLTYTRKEPFGVVGQIIPWNYPLLMLAWKWGPALAAGCTIVMKPAEQTPLTALYMCSLVKEAGFPPGVVNMVPGYGPTAGNAITMHPDIRKVAFTGSVEVGKIVMAGAASNLKKVSLELGGKSPLVICDDVDVNEAAQIAYTGVFENMGQCCIAATRTFVQEGIYDAFVQKATELAKGRKVGNPFSQGIQHGPQIDDIQFKKILGFIETGKKEGAKLETGGVQVGEEGYFIEPTVFSNVTDEMTIAKEEIFGPVQSIIKFKTLDEAIERANATSFGLAAGIVTKNLNNALTFSNAVEAGSVWVNTYLAVSNQAPFGGYKQSGVGREMGKEGIEEYLETKTVSIKLPSKV
notes: full length, N-terminal His6 fusion from pET100-D/TOPO, E. coli BL21 Star (DE3), HisTrap Ni purified, about 65 kDa on SDS-PAGE; cDNA from PMD-R strain
Usually Km stands for the substrate concentration at which the rate is half of its maximum. Turning to B1, the Km in the series “purified protein [1]” is 0.1538 ± 0.0308 µM; in the series “purified protein [2]”, 0.1391 ± 0.0279 µM.

B2: ALDH14080 (Aedes aegypti) (protein)
chain: MANPNQEIKYTKLFINNQFVDSQSGKTFPTLNPATGQKIVDVAEGDKADVDIAVQAAKTAFARSSAWRQMDASARGKLLHKLADLMERDINVLANLESLDNGKAFGDSVFDMNCAIDTFRYYAGWADKIHGSTVPSDGPVMTYIRKEPVGVVGQIIPWNYPVLMLTWKWAPALATGCTLVLKPAEQTPLSALYMAALSKEAGFPDGVINVVNGYGPTVGAAIVNHAEIRKVAFTGSVETGRLITEGSSKSNLKRVSLELGGKSPLVVFDDFDVDEAVEIAHNAIFANHGQNCCAGSRTFVQEGVYDKFVAKAAEMAKARKVGDAFAEGTQQGPQVDEEQLNKILGFFESASKEGAKLQTGGKRHGNVGYFVEPTVYSDVTDEMRIAREEIFGPVQSILKFKTLDEVIERANRTEYGLAAGVLTNNLNNALVFSNAVEAGSVWVNCYDYVMPTTPFGGFKQSGHGRELGYDGIELYTETKTVTIKLPSKV
notes: as for B1
Consider B2, for which, in the series “purified protein [2]”, the Km is 0.1938 ± 0.0345 µM.
